Laboratory results: patent US20070274981A1

Columns and labels:
Recombinant FGFR-1(IIIc) [1] = target: Recombinant FGFR-1(IIIc) (UniProt P11362); experiment: kinetic analysis (BiaCore)
Recombinant FGFR-1(IIIc) [2] = target: Recombinant FGFR-1(IIIc) (UniProt P11362); experiment: ELISA blocking assay: FGFR-1(IIIc) binding to FGF-1
Recombinant FGFR-1(IIIc) [3] = target: Recombinant FGFR-1(IIIc) (UniProt P11362); experiment: ELISA blocking assay: FGFR-1(IIIc) binding to FGF-2
Recombinant FGFR-1(IIIc) [4] = target: Recombinant FGFR-1(IIIc) (UniProt P11362); experiment: BiaCore 3000 biosensor, binding kinetics
[5] = target: FGFR-1(IIIc) on transfected L6 cells (UniProt P11362); experiment: cell-based blocking assay: 125I-FGF-2 (15 ng/ml) binding to FGFR-1(IIIc)-expressing L6 cells
Recombinant FGFR-1(IIIc) [6] = target: Recombinant FGFR-1(IIIc) (UniProt P11362); experiment: ELISA blocking assay: FGFR-1(IIIc) binding to immobilised FGF-1
Recombinant FGFR-1(IIIc) [7] = target: Recombinant FGFR-1(IIIc) (UniProt P11362); experiment: ELISA blocking assay: FGFR-1(IIIc) binding to immobilised FGF-2

Row | Kd (Recombinant FGFR-1(IIIc) [1]) [nM] | IC50 (Recombinant FGFR-1(IIIc) [2]) [nM] | IC50 (Recombinant FGFR-1(IIIc) [3]) [nM] | Kd (Recombinant FGFR-1(IIIc) [4]) [nM] | IC50 [5] [nM] | IC50 (Recombinant FGFR-1(IIIc) [6]) [nM] | IC50 (Recombinant FGFR-1(IIIc) [7]) [nM] | Binder
1 | 0.7 | 5 | 10 | – | – | – | – | FR1-A1 (antibody, V domains shown) VH: QVQLVQSGAEVKKPGSSVKVSCKASGQTFTGYYMHWVRQAPGQGLEWMGRIIPILGIANYAQKFQGRVTITADKSTSTAYMELSSLRSEDTAVYYCARGGDLGGMDVWGQG VL: EIVLTQSPLSLPVTPGEPASISCRSSQSLRHSNGYNYLDWYLQKPGQSPQLLIYLASNRASGVPDRFSGSGSGTDFTLKISRVEAEDVGVYYCMQALQIPPTFGPGTKVDIKR
2 | 0.05 | – | – | 0.04 | < 5 | 5 | 2 to 5 | FR1-H7 (antibody, V domains shown) VH: EVQLVQSGAEVKKPGASVKVSCKVSGYTFTDYYMHWVQQAPGKGLEWMGLVDPEDGETIYAEKFQGRVTITADTSTDTAYMELSSLRSEDTAVYYCARDDYMDVWGKGTLVTVSS VL: ETTLTQSPDTLSLSPGEGATLSCRASQSVSGSALAWYQQKPGQAPRLLIYDASSRATGVPDRFSGSGSGADFSLTISRLEPEDFAVYSCQQYGSSPLTFGPGTKVDVKR
